One molecule from PMC9638935 (Nucleic Acids Research, 2022) can be followed below.

One assay concerns the target T1, Mex67 (S. cerevisiae, UniProt Q99257 1-599).
T1 sequence (looked up): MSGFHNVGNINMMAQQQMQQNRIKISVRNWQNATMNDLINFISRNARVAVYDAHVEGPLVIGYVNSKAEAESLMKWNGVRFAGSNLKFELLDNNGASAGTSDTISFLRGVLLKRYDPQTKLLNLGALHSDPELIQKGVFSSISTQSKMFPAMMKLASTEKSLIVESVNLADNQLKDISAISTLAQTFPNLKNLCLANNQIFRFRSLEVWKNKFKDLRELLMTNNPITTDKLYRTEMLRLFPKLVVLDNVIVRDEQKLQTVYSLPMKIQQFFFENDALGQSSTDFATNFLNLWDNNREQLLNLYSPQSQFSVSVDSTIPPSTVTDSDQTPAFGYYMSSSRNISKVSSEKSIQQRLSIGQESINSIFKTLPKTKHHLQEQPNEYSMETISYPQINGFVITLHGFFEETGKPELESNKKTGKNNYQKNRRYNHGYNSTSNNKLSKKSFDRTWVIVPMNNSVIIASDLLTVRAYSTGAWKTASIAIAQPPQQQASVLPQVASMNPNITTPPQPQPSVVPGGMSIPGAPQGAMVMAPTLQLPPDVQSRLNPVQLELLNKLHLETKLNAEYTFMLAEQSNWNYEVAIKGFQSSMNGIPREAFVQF
The assay is described as follows: co-IP.

Assay [1] addresses T2, Cbp80 (tag not named for Figures 4C-D and 5D) (S. cerevisiae, UniProt P34160 1-861).
T2 sequence (looked up): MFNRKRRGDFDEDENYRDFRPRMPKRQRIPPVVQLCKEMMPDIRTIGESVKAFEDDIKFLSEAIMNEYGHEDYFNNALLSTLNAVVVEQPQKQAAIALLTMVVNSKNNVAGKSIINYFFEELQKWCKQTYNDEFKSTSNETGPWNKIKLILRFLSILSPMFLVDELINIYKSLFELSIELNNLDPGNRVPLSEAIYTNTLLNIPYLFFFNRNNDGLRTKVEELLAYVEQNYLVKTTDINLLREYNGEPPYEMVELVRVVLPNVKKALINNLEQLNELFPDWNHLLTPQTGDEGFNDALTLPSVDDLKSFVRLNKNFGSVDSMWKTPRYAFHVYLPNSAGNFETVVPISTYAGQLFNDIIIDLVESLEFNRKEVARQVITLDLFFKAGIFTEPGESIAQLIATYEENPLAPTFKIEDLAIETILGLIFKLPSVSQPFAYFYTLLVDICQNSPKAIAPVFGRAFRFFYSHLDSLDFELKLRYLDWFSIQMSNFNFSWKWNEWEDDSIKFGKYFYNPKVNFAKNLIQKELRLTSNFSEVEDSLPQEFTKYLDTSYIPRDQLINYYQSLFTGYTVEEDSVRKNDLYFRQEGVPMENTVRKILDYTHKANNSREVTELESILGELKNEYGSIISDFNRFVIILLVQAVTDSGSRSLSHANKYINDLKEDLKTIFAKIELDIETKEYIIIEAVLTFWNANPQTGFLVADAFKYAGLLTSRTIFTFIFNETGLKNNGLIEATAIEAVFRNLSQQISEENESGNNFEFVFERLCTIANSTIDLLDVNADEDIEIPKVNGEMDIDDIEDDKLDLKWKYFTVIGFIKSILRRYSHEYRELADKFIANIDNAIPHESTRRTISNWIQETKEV
The assay can be described thus: co-IP.

B1: Npl3 (natural protein, S. cerevisiae, UniProt Q01560 1-414, looked up)
chain: MSEAQETHVEQLPESVVDAPVEEQHQEPPQAPDAPQEPQVPQESAPQESAPQEPPAPQEQNDVPPPSNAPIYEGEESHSVQDYQEAHQHHQPPEPQPYYPPPPPGEHMHGRPPMHHRQEGELSNTRLFVRPFPLDVQESELNEIFGPFGPMKEVKILNGFAFVEFEEAESAAKAIEEVHGKSFANQPLEVVYSKLPAKRYRITMKNLPEGCSWQDLKDLARENSLETTFSSVNTRDFDGTGALEFPSEEILVEALERLNNIEFRGSVITVERDDNPPPIRRSNRGGFRGRGGFRGGFRGGFRGGFSRGGFGGPRGGFGGPRGGYGGYSRGGYGGYSRGGYGGSRGGYDSPRGGYDSPRGGYSRGGYGGPRNDYGPPRGSYGGSRGGYDGPRGDYGPPRDAYRTRDAPRERSPTR
Consider B1, for which the “drop of the co-IP signal in cet1-2 and rat1-1 cells relative to wild type” value with Mex67 was approximately 20%. Moreover, the “co-IP signal in cet1-2 relative to wild type” value in assay [1] was approximately 60%.
